# Assays:
# [1] = biological target: soluble human FcγRIIa ectodomain (human) (UniProt P12318); test: SPR (Biacore T200), mAb on Protein G chip, soluble FcγR ectodomain as analyte
# [2] = biological target: soluble human FcγRIIIa ectodomain (human) (UniProt P08637); test: as above
# [3] = biological target: soluble human FcγRIIb ectodomain (human) (UniProt P31994); test: as above
# [4] = biological target: Rituximab G2 (galactosylated afucosylated glycoform); test: SPR, 256 to 8 nM
# [5] = biological target: Rituximab G2F (galactosylated fucosylated glycoform); test: SPR, 256 to 8 nM
# Sequence of soluble human FcγRIIb ectodomain (human) (P31994 43-217): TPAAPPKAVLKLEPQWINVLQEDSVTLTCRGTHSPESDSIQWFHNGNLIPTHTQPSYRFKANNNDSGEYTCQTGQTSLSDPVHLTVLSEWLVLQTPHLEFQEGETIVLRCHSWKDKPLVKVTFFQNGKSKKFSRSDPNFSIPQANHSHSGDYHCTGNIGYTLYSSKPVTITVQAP
# Sequence of tetrameric FcγRIIIA (P08637 17-208 limits assumed): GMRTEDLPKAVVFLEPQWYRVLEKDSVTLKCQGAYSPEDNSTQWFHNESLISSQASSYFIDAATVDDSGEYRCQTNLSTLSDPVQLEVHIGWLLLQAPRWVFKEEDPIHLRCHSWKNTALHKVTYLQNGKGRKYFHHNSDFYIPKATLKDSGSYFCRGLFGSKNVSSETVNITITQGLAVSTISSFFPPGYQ
Substance,Fold (affinity relative to Wild-type) [1] [fold],Kd [1] [nM],Fold (affinity relative to Wild-type) [2] [fold],Kd [2] [nM],Kd [3] [nM],KD1 [4] [nM],KD2 [4] [nM],KD1 [5] [nM],KD2 [5] [nM],Fold (affinity relative to Wild-type) [3] [fold]
tetrameric FcγRIIIA (from UniProt P08637 17-208) (receptor),,,,,,29.9,2.3,55.2,2.29,
human IgG1 Fc variant: Afucosylated (antibody),,747,,,2220,,,,,
human IgG1 Fc variant: GAALIE (antibody),2.7,387,,218,4150,,,,,0.8
human IgG1 Fc variant: ALIE (antibody),0.5,2070,,169,3920,,,,,0.8

# More lines, in order of falling Kd [1], values ahead:
Fold (affinity relative to Wild-type) [1] [fold],Kd [1] [nM],Fold (affinity relative to Wild-type) [2] [fold],Kd [2] [nM],Kd [3] [nM],KD1 [4] [nM],KD2 [4] [nM],KD1 [5] [nM],KD2 [5] [nM],Fold (affinity relative to Wild-type) [3] [fold],Substance
1,1030,1,740,3110,,,,,,human IgG1 Fc variant: Wild-type (antibody)
5.5,186,0.8,903,2890,,,,,1.1,human IgG1 Fc variant printed 'GAALIE' in the second such row of Table 9 (r13) (antibody)
